What was measured:
[1] = molecular target: human Claudin18.2 expressed on cells (human) (UniProt P56856); test: flow cytometry on 293FT CLDN18.2-Luc cells, APC anti-mouse IgG Fc
[2] = molecular target: Human Claudin-18.2 protein (human) (UniProt P56856); test: SPR (Biacore 8K), antibody captured on Protein A, Claudin-18.2 protein as analyte

Question: IMAB-mIgG2aFc (antibody) was tested. Which EC50 [1] did it give?
Answer: 0.07 nM

Question: And the Kd [2]?
Answer: 5.65 nM

Question: What about the koff [2] of the same substance?
Answer: 0.000753 s⁻¹

Question: What about the kon [2] of the same substance?
Answer: 133000 M⁻¹ s⁻¹

Source: patent EP4682169A1
